Experimental data: patent US20180134794A1 (Regeneron, published 2018)

Biological target: human MET (c-Met, hepatocyte growth factor receptor), endogenous on human cell lines (human, UniProt P08581 25-1390)
Experiment: cell-based or functional assay
Throughout, for % Inhibition (HEK293/SRE-Luc Blocking Activity, 1 h mAb pre-bind): test concentration or dose not given here.

Sequence of human MET (c-Met, hepatocyte growth factor receptor), endogenous on human cell lines (P08581 25-1390 limits assumed, form in doubt): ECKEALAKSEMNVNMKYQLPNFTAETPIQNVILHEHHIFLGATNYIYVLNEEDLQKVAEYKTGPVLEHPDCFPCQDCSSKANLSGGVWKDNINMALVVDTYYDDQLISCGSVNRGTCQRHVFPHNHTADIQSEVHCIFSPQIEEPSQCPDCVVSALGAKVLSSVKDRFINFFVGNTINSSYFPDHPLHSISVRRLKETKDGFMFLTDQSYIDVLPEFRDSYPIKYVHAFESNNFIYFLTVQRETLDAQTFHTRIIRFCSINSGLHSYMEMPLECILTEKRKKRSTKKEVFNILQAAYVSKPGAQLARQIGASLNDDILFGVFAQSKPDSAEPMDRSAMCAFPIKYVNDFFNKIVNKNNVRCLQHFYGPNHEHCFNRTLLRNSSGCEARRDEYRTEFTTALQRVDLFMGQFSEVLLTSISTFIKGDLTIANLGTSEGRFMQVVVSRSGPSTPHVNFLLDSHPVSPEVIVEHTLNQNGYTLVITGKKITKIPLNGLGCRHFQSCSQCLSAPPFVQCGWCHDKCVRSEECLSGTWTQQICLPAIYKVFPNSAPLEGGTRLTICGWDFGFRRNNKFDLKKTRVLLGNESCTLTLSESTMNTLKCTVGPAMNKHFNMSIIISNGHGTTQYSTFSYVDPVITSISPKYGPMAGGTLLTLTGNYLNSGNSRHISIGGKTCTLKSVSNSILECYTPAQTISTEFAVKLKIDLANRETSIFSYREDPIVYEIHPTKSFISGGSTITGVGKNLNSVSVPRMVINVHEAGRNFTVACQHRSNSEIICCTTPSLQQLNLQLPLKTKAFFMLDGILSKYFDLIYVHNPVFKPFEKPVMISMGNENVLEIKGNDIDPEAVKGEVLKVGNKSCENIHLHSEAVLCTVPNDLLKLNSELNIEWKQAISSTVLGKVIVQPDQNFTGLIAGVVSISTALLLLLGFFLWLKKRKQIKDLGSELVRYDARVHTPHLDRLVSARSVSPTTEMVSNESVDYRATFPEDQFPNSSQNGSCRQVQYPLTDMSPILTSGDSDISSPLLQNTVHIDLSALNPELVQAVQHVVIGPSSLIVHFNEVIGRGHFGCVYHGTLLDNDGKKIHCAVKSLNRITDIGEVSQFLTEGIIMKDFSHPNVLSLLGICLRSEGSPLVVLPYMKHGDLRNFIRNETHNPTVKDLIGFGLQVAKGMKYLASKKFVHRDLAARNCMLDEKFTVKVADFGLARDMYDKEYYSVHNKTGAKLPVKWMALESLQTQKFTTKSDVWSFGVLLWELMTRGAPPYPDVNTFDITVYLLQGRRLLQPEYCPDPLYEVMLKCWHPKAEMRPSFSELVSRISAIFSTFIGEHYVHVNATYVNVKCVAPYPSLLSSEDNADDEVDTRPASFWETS

Binder | % Inhibition (HEK293/SRE-Luc Blocking Activity, 1 h mAb pre-bind) | EC50 (Ligand (HGF)-Independent HEK293/SRE-Luc Activation) | Fold Response (Ligand (HGF)-Independent HEK293/SRE-Luc Activation) | IC50 (HEK293/SRE-Luc Blocking Activity, 1 h mAb pre-bind)
H4H14640D (bispecific antibody, human IgG4, V domains shown) VH 1: QVQLVQSGTEVKEPGASVKVSCKASGYSFTTYGISWLRQAPGQGLEWMGWISTYNGDTISAQMLQDRVTLTADTSTRTAYMELRSLRSDDTAVYYCARGHEYDSLVYSYWGQGTLVTVSS VH 2: EVQLVESGGGLVQPGGSLRLSCAASGFIVTTNYMTWLRQAPGKGLEWVSLIYSSGHTYYADSVKGRFTISRHNSKNTLYLQMDSLRAEDTAVYYCASAFAADVFDIWGQGTMVTVSS VL: not shown | 89% | 6.8 nM | 2.5 fold | 0.52 nM
H4H13331P2 (antibody, human IgG4, V domains shown) VH: QVQLQESGPGLVKSSETLSLTCTVSGGSIRNFYWSWLRQPPGKGLEWIGHINYNGGTDYNPSLKSRVTISVDTSKNQFSLNLNSVTAADTAVYYCARQRFYGMDVWGPGTTVTVSS VL: not shown | 75% | 0.0023 nM | 7.1 fold | < 0.01 nM
H4H13318P2 (antibody, human IgG4, V domains shown) VH: QVQLVESGGGVVQPGRSLRLSCVASGFSFSNFGMHWVRQAPGKGLEWVAIIWYDGSNKYYSDSVKGRFTISRDNSKNTLYLQMNSLRVDDTAVYYCARFDRWKFDAFDIWGQGTMVTVSS VL: not shown | 77% | – | 3.1 fold | 0.1 nM
H4H13311P2 (antibody, human IgG4, V domains shown) VH: QVQLVESGGGVVQPGRSLRLSCAASGFTFSSYAMHWVRQAPGRGLEWVAVIWHDGDVEYYVDSVKDRFTISRDNSKSTLYLQMNSLRAEDTALYYCAREAWDLLRPFDYWGQGTLVTVSS VL: not shown | 62% | 0.3 nM | 5.2 fold | 0.035 nM
H4H13299P2 (antibody, human IgG4, V domains shown) VH: EVQLVESGGGLVQPGGSLRLSCAASGFIFSNYEMNWVRQAPGKGLEWISYITSSGNMKYYADSVKGRFTISRDNDKNSLYLQMSSLRVEDTAVYYCVRGGRFLEWLTYYVMVVWGQGTTVTVSS VL: not shown | 51% | 0.0037 nM | 14.4 fold | –
H4H13300P2 (antibody, human IgG4, V domains shown) VH: QVQLVESGGGVVQPGRSLRLSCAVSGFTFSSYGMHWVRQAPGKGLEWVANIWYDGTNDYYPYSVKGRFTISRDNSQNTLYLQMNSLRAEDTAVYYCAREDFINYRSFDYWGQGTLVTVSS VL: not shown | 69% | 0.48 nM | 2.8 fold | 0.12 nM
H4H13290P2 (antibody, human IgG4, V domains shown) VH: QVQLQESGPGLVKPSETLSLTCTVSGDSISSYYWTWIRQPPGKGLEWIGYIFYRGGTTYNPSLKSRVTISVDTSKNQFSLKLRSVTAADTAVYYCARGDDLLVVTSVYWYIDLWGRGTLVTVSS VL: not shown | 56% | < 0.002 nM | 9.8 fold | < 0.002 nM
H4H14634D (bispecific antibody, human IgG4, V domains shown) VH 1: QVQLQESGPGLVKPSETLSLTCTVSGDSISSYYWTWIRQPPGKGLEWIGYIFYRGGTTYNPSLKSRVTISVDTSKNQFSLKLRSVTAADTAVYYCARGDDLLVVTSVYWYIDLWGRGTLVTVSS VH 2: EVQLVESGGGLVQPGGSLRLSCAASGFIVTTNYMTWLRQAPGKGLEWVSLIYSSGHTYYADSVKGRFTISRHNSKNTLYLQMDSLRAEDTAVYYCASAFAADVFDIWGQGTMVTVSS VL: not shown | 85% | 0.09 nM | 3.4 fold | 0.0097 nM
